Assay in all cases: ELISA, plate coated with OVA-peptide conjugate, adjuvant-only control egg antibody, dilution not stated
In assay [1] the target is IL-10 Peptide #1 (SEQ ID NO: 1) conjugated to hen ovalbumin (Chicken, quail, turkey; hen) (UniProt P01012).
Assay [2] addresses IL-10 Peptide #3 (SEQ ID NO: 4) conjugated to hen ovalbumin (Chicken, quail, turkey; hen) (UniProt P01012).
Assay [3] deals with IL-10 Peptide #4 (SEQ ID NO: 5) conjugated to hen ovalbumin (Chicken, quail, turkey; hen) (UniProt P01012).

In the case of “adjuvant only injected control egg antibody”, the optical density in assay [1] came out at 0.562 OD at 450 nm; in assay [2], 0.499 OD at 450 nm; in assay [3], 0.6 OD at 450 nm.

These data come from patent US20150037277A1.
